± gives the standard deviation of the averaged measurements.
The sequences below were run on ATP (assay: switch fluorescence ratio, 500 uM ATP over buffer (Cy3 cluster intensity, sum of 5 cycles each) (fold (ratio)); higher = stronger signal-on switching upon ATP binding; sequences stand for … in TCGTCGGCAGCGTCAGATGTGTATAAGAGACAGTTTTTTTTTTTTTTTTTTTTTTTTT…TC). Settings: aptamer strand: ATP DNA aptamer (quencher-CACCTGGGGGAGTATTGCGGAGGAAGG + anchor), 100 nM annealed; ATP concentration: 500 uM.
Procedure, shortened: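 Switching-strand clusters labelled with Cy3 on a modified Illumina MiSeq flow-cell were annealed to 100 nM quencher-labelled ATP aptamer, imaged in selection buffer, and re-imaged after 15 min with 500 uM ATP at 22 °C. This was done over five cycles with NaOH stripping and re-annealing in between. The fluorescence ratio is summed target-cycle over summed buffer-cycle Cy3 intensity per cluster, averaged per switch-domain sequence, excluding clusters outside 100-1000 RFU.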
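Note: ATP exposure 15 min at 22 °C before imaging.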

In order of rising switch fluorescence ratio:
1. CGTTGCCGCT  0.934 ± 0.054
2. TATATGGTTG  0.9383 ± 0.0022
3. AGAATGTTGC  0.9482 ± 0.0035
4. TTATGTATGC  0.95 ± 0.08
5. ATGCAGGGCT  0.962 ± 0.041
6. GGGGGTTATA  0.965 ± 0.016
7. CGGGGTTGTC  0.966 ± 0.069
8. ATCAGGTAAG  0.9682 ± 0.0024
9. ATATTCCGTT  0.968 ± 0.018
10. TTGTATAATT  0.969 ± 0.038
11. TAGGCTTTGG  0.97 ± 0.0099
12. TAGTTGGATT  0.972 ± 0.038
13. TGTTTTCATT  0.973 ± 0.044
14. CACTGTGGGT  0.9744 ± 0.0046
15. AGCAAAGTA  0.9748 ± 0.0062
16. TTTAATGA  0.976 ± 0.011
17. TCGGGGTTGG  0.978 ± 0.029
18. GGGGTTAGGA  0.979 ± 0.019
19. TCATACATTT  0.9801 ± 0.0049
20. ATCGGCAGGG  0.981 ± 0.052
21. GCGCCCATGA  0.982 ± 0.043
22. TTTCAGGTTG  0.982 ± 0.041
23. AGGTTCAGGC  0.9821 ± 0.0086
24. GTTGGGGTTC  0.982 ± 0.027
25. GAGTAGATGT  0.983 ± 0.011
26. TAGAAACGCG  0.983 ± 0.025
27. ATGGGGAATG  0.984 ± 0.016
28. GGGTTACTGT  0.985 ± 0.012
29. GTTGAAGTTT  0.9846 ± 0.0073
30. GTTGGTGTTT  0.985 ± 0.016
31. TTTGGGATCA  0.9846 ± 0.0073
32. CTTATCTTTT  0.986 ± 0.0097
33. TATGGGGTAT  0.9863 ± 0.0055
34. ATGATATTTT  0.986 ± 0.027
35. CAACTTAGTC  0.988 ± 0.068
36. GATATGGGAG  0.988 ± 0.018
37. CTAGGGGGGG  0.988 ± 0.021
38. CTAAAGAAAG  0.989 ± 0.013
39. CTCATTTGGT  0.989 ± 0.028
40. GTTAGGAGGC  0.989 ± 0.062
41. CGTGGATGTG  0.9885 ± 0.0027
42. TAATTTTGGC  0.99 ± 0.018
43. TTTTGGGCGG  0.99 ± 0.022
44. AGATGATGGG  0.99 ± 0.017
45. GAGTGAAAGT  0.99 ± 0.023
46. GTCAGAGGCA  0.991 ± 0.011
47. GTTTTTTAGC  0.991 ± 0.069
48. GGGTCATTAA  0.9905 ± 0.0088
49. GTATTTGGGA  0.991 ± 0.054
50. AAGGCGGGG  0.991 ± 0.011
51. TATTTGGATC  0.991 ± 0.035
52. TGGGACGACG  0.991 ± 0.022
53. GTCAATTGGG  0.992 ± 0.044
54. TTGTATCTTC  0.993 ± 0.041
55. GATGATTATG  0.993 ± 0.011
56. ATAATGATTG  0.994 ± 0.016
57. TTCGTGTTAT  0.995 ± 0.021
58. GTGGGGAAGT  0.995 ± 0.034
59. CGTTATAAAT  0.996 ± 0.029
60. TTTCTTGTCA  0.996 ± 0.059
61. AAAGGAGATT  0.996 ± 0.028
62. CACCTGATGG  0.997 ± 0.025
63. AAGGAGGGT  0.9965 ± 0.0096
64. AGTTTTTCAA  0.9984 ± 0.0073
65. CGGCTAGACG  0.9994 ± 0.0057
66. GCGAATTTTG  0.9994 ± 0.0081
67. ATTTGAGATT  1 ± 0.018
68. TTATTGTTGT  1 ± 0.014
69. GGGGAGAGGT  1 ± 0.067
70. ATTAGTGATC  1.003 ± 0.0011
71. AAAACGGTTG  1 ± 0.019
72. GTGGCAGGTA  1 ± 0.012
73. GCTGCGCCGT  1.004 ± 0.0092
74. TGCTTGAGGG  1.004 ± 0.0097
75. GGTGGGGGGG  1 ± 0.036
76. TAATTGTCTA  1 ± 0.043
77. GGTTTTAAGT  1.01 ± 0.04
78. CTTAAAGTTA  1.01 ± 0.018
79. CAAGGAACGT  1.01 ± 0.029
80. TTGGTCTAGA  1.01 ± 0.054
81. ATGGGTGGGG  1.01 ± 0.037
82. AGAGGAGGGT  1.01 ± 0.017
83. CGTGCTGTT  1.01 ± 0.027
84. TAATAGAAAA  1.011 ± 0.006
85. CTCTAAGGGT  1.005 ± 0.0098
86. CATAGATGGG  1.01 ± 0.015
87. TATTTTTTGT  1.01 ± 0.021
88. AAGCTGACAG  1.01 ± 0.013
89. TGTGGCAAAA  1.015 ± 0.01
90. GGAATTGGTT  1.01 ± 0.061
91. GGGGTGCTAT  1.01 ± 0.043
92. GCATGCAGGG  1.01 ± 0.045
93. GGTGGGAGAC  1.01 ± 0.03
94. TAGTAGGGCA  1.01 ± 0.033
95. GTGATTTTGT  1.01 ± 0.032
96. CAATATTACT  1.01 ± 0.042
97. CTTTTGTCGT  1.01 ± 0.028
98. TATGCTTTAA  1.01 ± 0.024
99. TGCGCCGTTT  1.01 ± 0.017
100. AAGAACGGCG  1.01 ± 0.052
101. TCCTTGTCTT  1.01 ± 0.016
102. TAACCGAGAT  1.01 ± 0.043
103. CATTAGTAGC  1.02 ± 0.05
104. AATAAGAGGA  1.02 ± 0.026
105. TTTAAGTAAG  1.02 ± 0.012
106. TTTTAGATCT  1.02 ± 0.016
107. CTGGTTTCGA  1.017 ± 0.0082
108. CACATGTTAT  1.0197 ± 0.00089
109. ATATATTTAT  1.022 ± 0.0085
110. TATTTATGTC  1.02 ± 0.025
111. TTAATGTT  1.02 ± 0.018
112. GGAATTATTT  1.017 ± 0.01
113. TTTGGATCCT  1.02 ± 0.019
114. TGATATGTAA  1.021 ± 0.0094
115. AGGAGAGCTT  1.02 ± 0.012
116. TAATTATTCT  1.02 ± 0.014
117. GGCAAATTTT  1.02 ± 0.036
118. GTCACTAAAG  1.02 ± 0.043
119. TTACATTTAT  1.023 ± 0.0083
120. TAAAGGTACA  1.03 ± 0.018
121. ACTCGGGTAG  1.028 ± 0.0056
122. TCTCTTGGGA  1.03 ± 0.024
123. TATATGGGGC  1.03 ± 0.03
124. TTGGGAACGG  1.03 ± 0.034
125. ACAATGCTTT  1.03 ± 0.017
126. AGATCTATTG  1.03 ± 0.033
127. TAGGTCTGCA  1.033 ± 0.0058
128. TAGTCGATGC  1.03 ± 0.034
129. GCAATTTTTT  1.03 ± 0.032
130. GAAAGATGAC  1.03 ± 0.088
131. CGGGCAGTTT  1.03 ± 0.041
132. ATGTTGGTTG  1.03 ± 0.04
133. CAATGTGACG  1.03 ± 0.052
134. CATGTAACGC  1.04 ± 0.066
135. TGCATGTACA  1.04 ± 0.037
136. CTTAGCCACT  1.036 ± 0.0065
137. CCTAGTGGGG  1.04 ± 0.06
138. TAACTCGAAC  1.04 ± 0.023
139. GGGAGGGAAA  1.04 ± 0.056
140. ATGCACGGAA  1.05 ± 0.036
141. ACAGCAGGGC  1.07 ± 0.07
142. AATTAACGGC  1.07 ± 0.083
143. TTACTGGACG  1.07 ± 0.058
144. GCGGACGGAC  1.08 ± 0.061
145. CATAGGTACA  1.089 ± 0.0035
146. GTGCAATGTA  1.1 ± 0.015
147. ACTACAGACG  1.11 ± 0.061
148. CCTGAATTTC  1.12 ± 0.14
149. TGCCCCACGT  1.17 ± 0.16
150. CAGGGGTTGT  1.21 ± 0.31
151. TTCCCGGCAG  1.38 ± 0.47
152. GCACGTGACC  1.47 ± 0.048
153. ATGAGCAAGA  1.49 ± 0.015
154. ACTGACCCCC  1.58 ± 0.14
155. CCTGCCTCCT  2.27 ± 0.041
156. CCGTAAAACT  2.46 ± 1.2
157. CTTTAAGCAA  4.65 ± 0.36

— the supplement of paper PMC10126150
